Source: the nanobody polyreactivity screen of Harvey et al. (2022)

Assay: yeast display, Sf9 membrane polyspecificity reagent, FACS + sequencing; frameworks hold sequencing errors
Method in brief: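 Galactose induction of a Saccharomyces cerevisiae BJ5465 synthetic nanobody display library ran 36–48 hours. The cells were then stained for 1 hour at 4 °C with 10% biotinylated, detergent-solubilized Sf9 membrane reagent, pulled down on streptavidin microbeads and FACS-sorted into low and high (top ~1%) gates on expression and reagent-binding fluorescence. Labels for polyreactivity follow the gate of origin.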

In the case of “QVQLVESGGGLVQAGGSLRLSCAASGYIFGWYTMGWYRQAPGKERELVAAISGGGRTYYADSVKGRFTISRDNAKNTVYLQMNSLKPEDTAVYYCNDYSSYIKYDYWGQGTQVTVSS”, the “polyreactivity (PSR sort gate)” value is reported as “high polyreactivity”.
In the case of “QVQLGESGGGLVQAGGSLRLSCAASGITFRWYAMGWYRQAPGKERELVAAITSVDSTDYADSVKGRFTISRDNAKNTVYLQMNSLKPEDTAVYYCAAQPYDWFYYYYVIFPHYEYWGQGTQVTVSS”, the “polyreactivity (PSR sort gate)” value is reported as “low polyreactivity”.
With “QVQLVESGGGLVQAGGSLRLSCAASGGTFYFYAMVWYRQAPGKERELVAAISRSGGSTYYADSVKGRFTISRDNAKNTVYLQMNSLKPEDTAVYYCAARYTGGGIRYDYWGQGTQVTVSS” the “polyreactivity (PSR sort gate)” value was “high polyreactivity”.
For “QVQLVESGGGLVQAGGSLRLSCAASGRIFDLNAMGWYRQAPGKERELVAVITGSGGSTYYADSVKGRFTISRDNAKNTVYLQMNSLKPEDTAVYYCNAYTQQYRSYGYWGQGTQVTVSS”, the “polyreactivity (PSR sort gate)” value was “low polyreactivity”.
For “QVQLVESGGGLVQAGGSLRLSCAASGRICGSYAMGWYRQAPGKERELVAAISWRGTSTYYADSVKGRFTISRDNAKNTVYLQMNSLKPEDTAVYYCAAAVDAFTNKQYYYWGQGTLVTVSS”, the “polyreactivity (PSR sort gate)” value was “low polyreactivity”.
With “QVQLVESGGGLVQAGGSLRLSCAASGSIFRSNTMGWYRQAPGKERELVASITRGGSTNYADSVKGRFTISRDNAKNTVYLQMNSLKPEDTAVYYCIARRTVRYYFSYGYWGQGTQVTVSS” the “polyreactivity (PSR sort gate)” value was “high polyreactivity”.
For “QVQIVESGGGLFQAGGSIRLSCSASGFTFAFYSMGWYRQAPGKERQLVAAISWSGGSTYYADSVKWRFTISRDNAKNTVYLQMNSLKPEDNAVYYCNTDRGPIGDHYDYWGQGTQVTVSS”, the “polyreactivity (PSR sort gate)” value was “high polyreactivity”.
In the case of “QVQLVESGGGLVQAGGSLRLSCAASGRIFGTNALGWYRQAPGKERELVATITRGGGNTYYADSVKGRFTISRDNAKNTVYLQMNSLKPEDTAVYYCAAKFHRFAWYSHYDYWGQGTQVTVSS”, the “polyreactivity (PSR sort gate)” value is reported as “low polyreactivity”.
In the case of “QVQLVESGGGLVQAGGSLRLSCAASGRIYYRNAMGWYRQAPGKERELVAAISWRGGTTYYADSVKGRFTISRDNAKNSVYLQMNSLKPEYTAVYYCAADRRKAQAKPVHYSWGPQRYGYGYWGQGTQVTVSS”, the “polyreactivity (PSR sort gate)” value is reported as “high polyreactivity”.
In the case of “QVQLVESGGGLVQAGGSLRLRCAASGSIFLVNALGWYRQAPGKEWELVASITWRGGRTYYADSVKGRFTISRDTAKKTVYLQMNRLKPADTAVYYCSALNYRTGERLRYDYWGQGTQVTVSS”, the “polyreactivity (PSR sort gate)” value is reported as “low polyreactivity”.
With “QVQLVESGGGLVQAGGSLRLSFAASGINFRSYTMGWYRQAPGKERELVAGITRSGGSTYYADSVKGRFTISRDNAKNTVYLQMNSLKPEDSAVYYCAAKFRAGRSSYYWGHGTQVTVSS” the “polyreactivity (PSR sort gate)” value was “high polyreactivity”.
With “QVQLVESGGGLVQAGGRLRLSCAASGIIIDYYTMGWYRQAPGKERELVAAINKSGGSTYADSVKGRFTISRDNAKNTVYLQMNSLKPEDTAVYYCAAEVDYSYWPEYARKYYYWGQGTQVTVSS” the “polyreactivity (PSR sort gate)” value was “low polyreactivity”.
With “QVQLVESGGGLVQAGGSLRLSCAASGSTFDYNAMGWYRQAPGKERELVAAINSGASTYYADSVKGRFTISRDNAKNTVYLQMNSLKPEDTAVYYCAKDYPYIGDYWGQGTQVTVSS” the “polyreactivity (PSR sort gate)” value was “low polyreactivity”.
With “QVQLVESGGGLVQAGGSLRLSCAASGRTSAIYDMGWYRQAPGKERDLVAAIDYSDGSTYYADSVKGRFTISRDNAKYTVYLQMNSLKPEDTAVYYCAADYDAIYLWWGYDYWGQGTQLTVSS” the “polyreactivity (PSR sort gate)” value was “low polyreactivity”.
In the case of “QVQLVESGGGLVHAGGILRLSCAASGRTFPYYAMGWYRQAPGKERELVAAISSSGGGTYYADSVKGRFTISRDTAKNTVYLQMNSLKPEDTAVYYCNAVSYYQDSFYYWGQGTQVTVSS”, the “polyreactivity (PSR sort gate)” value is reported as “high polyreactivity”.
For “QVQLVESGGGLVQAGGSLRLSCSASGSIFPAYAMGWYRQAPGKERELVASITGSGGSTYYADSVKGRFTISRDNAKNTVYLQMNSLKPEDTAVYYCNARYYVYSATVDRYYHFYYCGQGTQVTVSS”, the “polyreactivity (PSR sort gate)” value was “high polyreactivity”.
In the case of “QVQLVESGGGLVQAGGSLRLSCAASGRTFGTYAMGWYIQAPGKERELVAAIRSNAGSTYYADSVKGRFTISRDNAKNTVYLQMNSLKPEDNAVYYCAKSYRCSRRYNYWGQGTQVTVSS”, the “polyreactivity (PSR sort gate)” value is reported as “high polyreactivity”.
For “QVQLVESGGGLVQAGGSLRLSCAASGRTFYGYAMGWSRQAPGKERELVAAISWTGGRTYYADSVKGRFTISRDNAKNTVFLQMNSLKPEDTAVYYCNARRRGDSGDGYIYGYWGQGTQVTVSS”, the “polyreactivity (PSR sort gate)” value was “high polyreactivity”.
For “QVQLQEIGGGLVQAGGSLRLSCAASGYIIPYYSMRWYRQAPGKERGLVACIAAGTTTNFADCVKGRFTISRDNAKNTVYLQMNSLKPEDAAVYFCAALNAFKTGDWYWGQGTQVTVSS”, the “polyreactivity (PSR sort gate)” value was “low polyreactivity”.
For “QVQLVESGGGLVQAGGRLRLSCAASGRTFVYNALGWYRQAPGKERELVAAISQSGGSTYYADSVKGRFTISRDNAKITVYFQMNSLKPEDTAVYYCADRYKTGSYVRYNFWGQGTQVTVSS”, the “polyreactivity (PSR sort gate)” value was “high polyreactivity”.
In the case of “QVQLVESGGGLVQAGGSLRLSCAGSGSIFKRYAMGWYRQAPGKERELVAAITSRGGSTYYADSVKGRFTISRDTAKNTVYLQLNSLKPEDTAVYYCAATRSSTNGYDYWGQGTQVTVSS”, the “polyreactivity (PSR sort gate)” value is reported as “high polyreactivity”.
In the case of “QVQLVESGGGLVQAGGSLRLSCAASGSTFTYNTMGWYRQAPGKERELVAAINTTGNTYADSVKGRFTISRDNAKNTVYLQMNSLKPEDTAVYYCNTDYVPRRHDMDYWGQGTQVTVSS”, the “polyreactivity (PSR sort gate)” value is reported as “low polyreactivity”.
With “PVQLVESGGGLVQAGGSLSLTCAASGFIFYDYAMRWYRPAPGKERELVAGITSSGTSTYYADSVKGRFTISRDNAKNTVYLQMNSLKPEDTSVYYFNKAPSWWDVRVPFDYWGQGTQVTVSS” the “polyreactivity (PSR sort gate)” value was “low polyreactivity”.
With “QVQLVDSGGRLEQAGGSLRLSCAASGSIFGWNAMGWYRQAPGKERELVAAINWTGGTTYYADSVKGRITISRDNAKYTVYLQMKSLKPADTAVYYCAARLTYHVAGQITRYYYWGQGTQVTVSS” the “polyreactivity (PSR sort gate)” value was “low polyreactivity”.
In the case of “QVQLVESGGGLVQAGGSLRLSCAASGRIFHYYAMGWYRQAPGTERELVAAITSSGGSTYYADSVKGRFTISRDNAKNTVYLQMNSLKPEDTAVYYCAAGLIVGRFLRYDYWGQGTQVTVSS”, the “polyreactivity (PSR sort gate)” value is reported as “high polyreactivity”.
With “QVQLVESGGGLVQAGGSLRLSCAASGSTFPQNAMGWTRQAPGKERELVAVISRSGGNPYYADSVKGRFTISRDIAKNSVYLQMNSLKPEDTAVYYCATRVKTTYDYWGQGTQVTVSS” the “polyreactivity (PSR sort gate)” value was “low polyreactivity”.
In the case of “QVQLIESGGGLVQAGGSLRLSCAASGNIFAVYAMGWYRQAPGKERELVASITVSGASTYYADSVKGRFTISRDNAKNTVYLQMNSLKPEDTAVYYCAARIGSNQRKRYYWGQGTQVTVSS”, the “polyreactivity (PSR sort gate)” value is reported as “high polyreactivity”.
For “LVQLVESGGGLVQAGGSLRLSCAASGSTFSVNALGWYRQAPGNERELVAAITYSGGSTYYADSVKGRFTISRDTAKNTVYLQMNSLKPEDTAVYYCATRVWFYKSRGGYRERDYWGQGTQVTVSS”, the “polyreactivity (PSR sort gate)” value was “high polyreactivity”.
For “QVQLVESGGGLVQAGGSLRLSCAASGIIFYHNAMGWYRKAPGKERELVATIRSSGDGTYYADSVKGRFTISRDNAKNTVYLQMNSLKPEDTAVYYCAAYWAHSYSYSVSRRYYYWGQGTQVTVSS”, the “polyreactivity (PSR sort gate)” value was “low polyreactivity”.
For “QVQLVESGGGLVHAGGSLRLSCAASGSIFGTNAMGWYRQAPGQERELVAAISYSGGSTYYADSVKGRFTISRDPAKNTVYLQMNSLKPDDTAVYYCAKVVRYWWERDYWGKGTQVTVSS”, the “polyreactivity (PSR sort gate)” value was “high polyreactivity”.
For “QVQLVESGGGLVQAGGSLRLSCAASGRTFGYYAMGWYRQAPGKERELVAAISTRSGSTYYADSVKGRFTISRDNAKNTVYLQMNSLKPEDTAVYYCDADSYPDYDYWGQGTQVTVSS”, the “polyreactivity (PSR sort gate)” value was “low polyreactivity”.
In the case of “QVQLVESGGGLVQAGGSLRLSCAASGINFNKYAMGWYRQAPGKEREFVAAITYRGGSTYYADSVKGRFTISRDNAKNTVYFQMNSLKPEDTAVYYCAARRITTYYYWGQGTQVTVSS”, the “polyreactivity (PSR sort gate)” value is reported as “high polyreactivity”.
In the case of “QVQLVESGGGLVQAGGSLRLSCAASGFIFRYYAMGWYRQAPGKERELVAAITSGGASTYYADSVKGRFTISRDNAKNTVYLQMNSLKPEDTAVYYCAADTSSYSEYDYWGQGTQVTVSS”, the “polyreactivity (PSR sort gate)” value is reported as “low polyreactivity”.
With “QVQLVESGGGLVQAGGSLRLSCAASGFTFRVYAMGWYRPAPGKERELVAAISVRGDSTYYADSVKGRFTISRDNAKNTVYLQMNSLKPEDTAVYYCNAALLGKQYYSNPNYDYWGQGTQVTVSS” the “polyreactivity (PSR sort gate)” value was “high polyreactivity”.
For “QVQLVESGGGLVQAGGSLRLSCAASGFSFGIYAMGWYRQAPGKERELVADITASGGSTYYADSVKGRFTISRDNAKNTVYLQMNSLKPEDTAVYYCAADGWWHNFYPGTGLDYWGQGTQVTVSS”, the “polyreactivity (PSR sort gate)” value was “low polyreactivity”.
In the case of “QVQLVESGGGLVQAGGSLRLSCAASGRTIGLNGMGWYRQAPGKERELVAGISLSGGSTNYADSVKGRFTISRDNAKNTVYLQMNSLKPEDTAVYYCAADFVYYVVNDFGWSYAYEYWGQGTQVTVSS”, the “polyreactivity (PSR sort gate)” value is reported as “low polyreactivity”.
For “QVQLVESGGGLVQAGGSLRLSCAASGLTFRYYAMGWYREAPGKEREFVAAITSSGGSTDYADSVKGRFTISRDNAKNSVYLQMNSVKPDDTGVFYCAAATNTQESVPMYYWGQGTQVTVSS”, the “polyreactivity (PSR sort gate)” value was “low polyreactivity”.
With “QVQLVESGGGLVQAGGSLRLSCAASGTFGGYAMGWYRQAPGKEREFVAAIDYGGGSTYYADSVKGRFTMSRDNAKNTVYLQMNSLKPEDTAVYYCAAEHWGYTYDQDFSTWATIYEYWGQGTQVTVSS” the “polyreactivity (PSR sort gate)” value was “high polyreactivity”.
With “QVQLVESGGGLVQAGGSLRLSCAASGSTFPGYAMGWYRQAPGKERELVAAINGRGGSTYYADSVKGRFTISRDNAKNTVYLQMNSLKPEDSAVYYCAAFVGSRSAKYIKYWGQGTQVTVSS” the “polyreactivity (PSR sort gate)” value was “high polyreactivity”.
For “QVQLVESGGGLVQAGGSLRLSCAASGFIFYPYAMGWYRQATGKETELVAAITWSGGTTTYADSEKGRFTISRDNAKNTVYLQMNSLKPEDTAVYSCAALWYYGRYPYDYWGQGTQVTVSS”, the “polyreactivity (PSR sort gate)” value was “high polyreactivity”.
For “QVQLVESGGGLVQARGSLRLSCAASGSIFPNYAMGWYRQAPGKERELVAAISSSGGRTYYADSVKGRFTSSRDNAKNTVYLQMNRLKPEDTAVYYCAVRGYWGEGTQVTVSS”, the “polyreactivity (PSR sort gate)” value was “low polyreactivity”.
With “QVQLVESGGGLVQAGGSLRLSCAASGSIFWYNDMGWYRQAPGKEREFVAAITWDDGSTYYADSVKGRFTISRDNAKNTVYLQMNSLKPEDTAVYYCAAYVWYYDPASGWFITDYDYWGQGTQVTVSS” the “polyreactivity (PSR sort gate)” value was “high polyreactivity”.
With “QVQLVESAGGLGQAGGSLRLSSAASGITTRTYAMGWYRQARGNERELVAAISDSGDRTYYADSVKGRFTISRDNAKNTVYLQMNSLKPEETAVYYCAVHAPGPRCEYWGQGTQVTVSS” the “polyreactivity (PSR sort gate)” value was “low polyreactivity”.
